One block for each binder: values may come before it.
Legend:
[1] = biological target: T1, rHuman EGF R/Fc Chimera, CF (R&D Systems Cat#344-ER) (human, UniProt P00533 25-645); test: MSD multispot ECL, antigen spotted on plate, Fab 352.5 nM; blank spot 494
T1 construct: Bought from R&D Systems; also called epidermal growth factor receptor (EGF R); not shown: Fc of the bought chimera

[2] = biological target: T2, rHuman CD44/Fc Chimera, CF (R&D Systems Cat#3660-CD) (human, UniProt P16070 21-220); test: as above
T2 construct: Bought from R&D Systems; not shown: Fc of the bought chimera

[3] = biological target: T3, rHuman Notch-1/Fc Chimera, CF (R&D Systems Cat#3647-TK) (human, UniProt P46531 19-526); test: as above
T3 construct: Bought from R&D Systems; not shown: Fc of the bought chimera

[4] = biological target: T4, rHuman IGF-1 sR, (IGF-1 sR), CF (R&D Systems Cat#391-GR) (human, UniProt P08069 31-932); test: as above
T4 construct: Bought from R&D Systems and called a soluble receptor; also called insulin-like growth factor-1 soluble receptor

[5] = biological target: T5, rHuman ErbB2/Fc Chimera, CF (R&D Systems Cat#1129-ER) (human, UniProt P04626 23-652); test: as above
T5 construct: Bought from R&D Systems; also called human epidermal growth factor 2 receptor (ErbB2); not shown: Fc of the bought chimera

[6] = biological target: T6, rHuman Erythropoietin R/Fc Chimera, CF (R&D Systems Cat#963-ER) (human, UniProt P19235 25-250); test: as above
T6 construct: Bought from R&D Systems; also called EPO R/Fc; Epo R/Fc chimera; not shown: Fc of the bought chimera
T6 sequence (looked up): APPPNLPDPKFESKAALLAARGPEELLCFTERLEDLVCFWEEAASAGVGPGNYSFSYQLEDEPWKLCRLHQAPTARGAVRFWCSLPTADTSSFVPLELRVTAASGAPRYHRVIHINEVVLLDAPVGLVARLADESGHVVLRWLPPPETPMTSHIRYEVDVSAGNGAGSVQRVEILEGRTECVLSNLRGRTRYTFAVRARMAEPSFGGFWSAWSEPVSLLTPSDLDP

[7] = biological target: T7, rHuman P-Cadherin/Fc Chimera, CF (R&D Systems Cat#861-PC) (human, UniProt P22223 108-654); test: as above
T7 construct: Bought from R&D Systems; not shown: Fc of the bought chimera

[8] = biological target: T8, rHuman HGF R/c-MET/Fc Chimera, CF (R&D Systems Cat#358-MT/CF) (human, UniProt P08581 25-932); test: as above
T8 construct: Bought from R&D Systems; also called HGF R/Fc; hepatocyte growth factor receptor (HGF R/c-Met); not shown: Fc of the bought chimera

[9] = biological target: T9, Recombinant Human DLL4 (R&D Systems Cat#1506-D4/CF) (human, UniProt Q9NR61 27-524); test: as above
T9 construct: Bought from R&D Systems; also called rHuman DLL4; delta-like protein 4

[10] = biological target: T10, rHuman HGF R/c-MET/Fc Chimera, CF (R&D Systems Cat#358-MT/CF) (human, UniProt P08581 25-932); test: ECL Multispot (MSD) assay, antigen spotted on plate, 10 nM Fab; blank spot of this row 182
T10 construct: Bought reagent; also called HGF R/Fc; hepatocyte growth factor receptor; Fc part of the bought chimera not given

[11] = biological target: T11, rHuman CD44/Fc Chimera, CF (R&D Systems Cat#3660-CD) (human, UniProt P16070 21-220); test: as above
T11 construct: Bought reagent; Fc part of the bought chimera not given

[12] = biological target: T12, rHuman P-Cadherin/Fc Chimera, CF (R&D Systems Cat#861-PC) (human, UniProt P22223 108-654); test: as above
T12 construct: Bought reagent; Fc part of the bought chimera not given

[13] = biological target: T13, rHuman Notch-1/Fc Chimera, CF (R&D Systems Cat#3647-TK) (human, UniProt P46531 19-526); test: as above
T13 construct: Bought reagent; Fc part of the bought chimera not given

[14] = biological target: T14, rHuman Erythropoietin R/Fc Chimera, CF (R&D Systems Cat#963-ER) (human, UniProt P19235 25-250); test: as above
T14 construct: Bought reagent; also called EPO R; EPO R/Fc; Fc part of the bought chimera not given
T14 sequence (looked up): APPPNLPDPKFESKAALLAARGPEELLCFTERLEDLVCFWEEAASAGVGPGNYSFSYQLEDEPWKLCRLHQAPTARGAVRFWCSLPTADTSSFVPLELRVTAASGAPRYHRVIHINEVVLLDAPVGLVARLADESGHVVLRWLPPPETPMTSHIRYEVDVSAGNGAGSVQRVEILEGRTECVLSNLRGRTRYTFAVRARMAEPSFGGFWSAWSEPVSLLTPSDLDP

[15] = biological target: T15, rHuman IGF-1 sR, CF (R&D Systems Cat#391-GR) (human, UniProt P08069 31-932); test: MSD multispot ECL, antigen spotted on plate; Fab 0.1275 uM; blank spot 530
T15 construct: Bought recombinant soluble receptor; also called insulin-like growth factor-1 soluble receptor

[16] = biological target: T16, rHuman P-Cadherin/Fc Chimera, CF (R&D Systems Cat#861-PC) (human, UniProt P22223 108-654); test: as above
T16 construct: Bought recombinant protein; Fc part of the bought chimera not given

[17] = biological target: T17, rHuman CD44/Fc Chimera, CF (R&D Systems Cat#3660-CD) (human, UniProt P16070 21-220); test: as above
T17 construct: Bought recombinant protein; Fc part of the bought chimera not given

[18] = biological target: T18, rHuman Notch-1/Fc Chimera, CF (R&D Systems Cat#3647-TK) (human, UniProt P46531 19-526); test: as above
T18 construct: Bought recombinant protein; Fc part of the bought chimera not given

- ECL signal [1]: 769
- ECL signal [2]: 556
- ECL signal [3]: 715
- ECL signal [4]: 528
- ECL signal [5]: 514
- ECL signal [6]: 4100
- ECL signal [7]: 649
- ECL signal [8]: 606
- ECL signal [9]: 660
B1: Fab VH1-46_IGHD3-10*01_IGHJ4*01 & B3_IGKJ1*01 (Fab, V domains shown)
VH: QVQLVQSGAEVKKPGASVKVSCKASGYTFTSYYMHWVRQAPGQGLEWMGIINPSGGSTSYAQKFQGRVTMTRDTSTSTVYMELSSLRSEDTAVYYCAREYYYGSGSYYNDYFDYWGQGTLVTVSS
VL: not shown
notes: Tested as a Fab made in E. coli; VH was cloned into Plasmid A (CH1 constant region, His6 and Flag tags); The kappa VL was cloned into Plasmid C (kappa CL)

- ECL signal [10]: 319
- ECL signal [11]: 221
- ECL signal [12]: 449
- ECL signal [13]: 251
- ECL signal [14]: 222
B2: Fab VH1-46_IGHD6-6*01_IGHJ1*01 S102A/S103P/S104F (APF) & L6_IGKJ1*01 (Fab, V domains shown)
VH: QVQLVQSGAEVKKPGASVKVSCKASGYTFTSYYMHWVRQAPGQGLEWMGIINPSGGSTSYAQKFQGRVTMTRDTSTSTVYMELSSLRSEDTAVYYCAREEYAPFSAEYFQHWGQGTLVTVSS
VL: not shown
notes: Tested as a Fab made in E. coli; also called H:APF & L:wt; APF triple mutant

- ECL signal [15]: 1040
- ECL signal [16]: 957
- ECL signal [17]: 926
- ECL signal [18]: 1500
B3: Fab VH4-34_IGHD7-27*01_IGHJ4*01 & L5_IGKJ1*01 (Fab, V domains shown)
VH: QVQLQQWGAGLLKPSETLSLTCAVYGGSFSGYYWSWIRQPPGKGLEWIGEINHSGSTNYNPSLKSRVTISVDTSKNQFSLKLSSVTAADTAVYYCARANWGDYFDYWGQGTLVTVSS
VL: DIQMTQSPSSVSASVGDRVTITCRASQGISSWLAWYQQKPGKAPKLLIYAASSLQSGVPSRFSGSGSGTDFTLTISSLQPEDFATYYCQQANSFPPWTFGQGTKVEIKR
notes: Germline library Fab expressed in E. coli; VH was cloned into Plasmid A, which adds CH1 with His6 and Flag tags
